Results taken from publication PMC9765439, “Systems-Wide Dissection of Organic Acid Assimilation in Pseudomonas aeruginosa Reveals a Novel Path To Underground Metabolism” (mBio, 2022).

Columns and labels:
Assay in all cases: purified protein
Type in all cases: biochemical, Pseudomonas aeruginosa
purified protein [1] = substrate: CCC(=O)SCCNC(=O)CCNC(=O)[C@H](O)C(C)(C)COP(=O)(O)OP(=O)(O)OC[C@H]1O[C@@H](n2cnc3c(N)ncnc32)[C@H](O)[C@@H]1OP(=O)(O)O; conditions: 0.5 mM oxaloacetate, 50 mM HEPES pH 7.5, 0.1 M KCl, 0.54 M glycerol, 37 °C
purified protein [2] = substrate: O=C(O)CC(=O)C(=O)O; conditions: 0.5 mM propionyl-CoA, 50 mM HEPES pH 7.5, 0.1 M KCl, 0.54 M glycerol, 37 °C
purified protein [3] = substrate: CC(=O)SCCNC(=O)CCNC(=O)[C@H](O)C(C)(C)COP(=O)(O)OP(=O)(O)OC[C@H]1O[C@@H](n2cnc3c(N)ncnc32)[C@H](O)[C@@H]1OP(=O)(O)O; conditions: 0.5 mM oxaloacetate, 50 mM HEPES pH 7.5, 0.1 M KCl, 0.54 M glycerol, 37 °C

B1: PrpCPa (2-methylcitrate synthase, 2-MCS) (Pseudomonas aeruginosa PAO1) (protein)
chain: MAEAKVLSGAGLRGQVAGQTALSTVGQEGAGLTYRGYDVRDLAAAAIFEEVAYLLLYGELPNKQQLDAYLKKLQGQRDLPQALKEVLERIPKDAHPMDVMRTGASVLGTLEPELSFDQQRDVADRLLAAFPAIMTYWYRFTHEGQRIDCNSDEPTIGGHFLALLHGKKPSELHVKVMNVSLILYAEHEFNASTFTARVCASTLSDLYSCVTGAIGSLRGPLHGGANEAAMELIERFSSPQEATAELLKMLERKDKIMGFGHAIYKDSDPRNEVIKGWSKQLADEVGDKVLFAVSEAIDKTMWEQKKLFPNADFYHASAYHFMGIPTKLFTPIFVCSRTSGWTAHVFEQRANNRIIRPSAEYTGVEQRAFVPLEQR
notes: pET-19m, N-terminal TEV-cleavable His6 tag, cut; E. coli host; homodimer
- Km (purified protein [1]): 45 µM
- Km (purified protein [2]): 15.65 µM
- kcat/Km (purified protein [2]): 228000 M⁻¹ s⁻¹
- Km (purified protein [3]): 28 µM
- kcat/Km (purified protein [3]): 114000 M⁻¹ s⁻¹
